Measurements reported in patent US20060014193A1, “Nucleoside phosphoramidates and nucleoside phosphoramidases” (priority 2004, published 2006).

Experiments:
[1] = substrate: NCCc1c[nH]c2ccccc12; experiment: Phosphoramidase fluorescence assay; type: biochemical, human; conditions: other: Table 5; pH 7.2; 25.0 °C
Experimental: The fluorescence of tryptophan (ex, 280 nm, em 360 nm) can be quenched when covalently attached to a nucleoside monophosphate, and nucleoside phosphoramidates of D- and L-tryptophan and tryptamine are excellent fluorescent substrates for hHINT1. Typically, after measurement of initial substrate fluorescence, hHINT1 was added to the reaction solution (HEPES buffer, pH 7.2, 25° C.) and the change in fluorescence over 2 min was determined by converting the slope into μM of substrate hydrolyzed per μg of enzyme per min with a standard curve. […] Based on the generation of chimeric polypeptides between the hHINTI and the hinT of E. coli, the preference for D enantiomers by the human HINT1 polypeptide is likely conferred by the C-terminus amino acids (e.g., the C-terminus 5, 6, 5 7, 8, 9, 10, or 11 amino acids) of the hHINT1 enzyme. […] In addition, both D-tryptophan phosphoramidates of cytosine and uridine were substrates. Initial rates were determined 10 during the first 10-20% of the reaction for variable substrate concentrations. The Michaelis-Menten constants, kcat and Km, for selected nucleoside phosphosphoramidates have been determined. (Table 4). As observed in the initial screening assay, for phosphoramidates containing L-tryptophan, hHINT1 has a 7-fold greater preference for AMP phosphoramidates of L-tryptophan than GMP.

[2] = substrate: NCCc1c[nH]c2ccccc12; experiment: Phosphoramidase fluorescence assay; type: biochemical, E. coli; conditions: other: Table 5; pH 7.2; 25.0 °C

B1: hHINT1 (Homo sapiens) (protein)
chain: MADEIAKAQVARPGGDTIFGKIIRKEIPAKIIFEDDRCLAFHDISPQAPTHFLVIPKKHISQISVAEDDDESLLGHLMIVGKKCAADLGLNKGYRMVVNEGSDGGQSVYHVHLHVLGGRQMHWPPG
Km [1]: 1.74 ± 0.22 µM
kcat [1]: 0.97 ± 0.11 s⁻¹
kcat/Km [1]: 558000 M⁻¹ s⁻¹

B2: E. coli hinT (Escherichia coli K-12) (protein)
chain: MAEETIFSKIIRREIPSDIVYQDDLVTAFRDISPQAPTHILIIPNILIPTVNDVSAEHEQALGRMITVAAKIAEQEGIAEDGYRLIMNTNRHGGQEVYHIHMHLLGGRPLGPMLAHKGL
Km [2]: 30.1 ± 2.39 µM
kcat [2]: 0.45 ± 0.04 s⁻¹
kcat/Km [2]: 15000 M⁻¹ s⁻¹
